Measurements taken from article PMC9482650, “Quantitative fragmentomics allow affinity mapping of interactomes” (Nature Communications, 2022).

Key:
Test in all cases: holdup assay
Set-up in all cases: key: below the threshold = too weak to quantify, mostly under pKd 3.1 to 4
[1] = target: Inadl_10, Q8NI35
[2] = target: T1, DVL3, Q92997
T1 sequence (Q92997 244-331, limits assumed, looked up): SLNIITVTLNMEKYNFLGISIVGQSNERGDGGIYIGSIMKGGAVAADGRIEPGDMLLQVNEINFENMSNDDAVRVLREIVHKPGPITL

[3] = target: T2, PARD6G, Q9BYG4; conditions: plain residues with an end cap or a label only (N-terminal biotin on a linker: ttds)
T2 sequence (Q9BYG4 153-261, limits assumed, looked up): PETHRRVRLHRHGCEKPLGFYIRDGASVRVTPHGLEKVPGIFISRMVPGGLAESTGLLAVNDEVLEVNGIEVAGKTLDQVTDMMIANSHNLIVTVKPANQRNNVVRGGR

[4] = target: T3, PREX2_2, Q70Z35; conditions: plain residues with an end cap or a label only (N-terminal biotin on a linker: ttds)
T3 sequence (Q70Z35 672-764, limits assumed, looked up): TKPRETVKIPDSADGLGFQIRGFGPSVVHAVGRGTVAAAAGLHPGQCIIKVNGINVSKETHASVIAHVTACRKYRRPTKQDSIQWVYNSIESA

[5] = target: T4, MPDZ_2, O75970; conditions: plain residues with an end cap or a label only (N-terminal biotin on a linker: ttds)
T4 sequence (O75970 252-347, limits assumed, looked up): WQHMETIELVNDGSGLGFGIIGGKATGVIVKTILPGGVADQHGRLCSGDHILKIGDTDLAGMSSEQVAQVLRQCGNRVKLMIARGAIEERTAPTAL

[6] = target: T5, MPP1, Q00013; conditions: plain residues with an end cap or a label only (N-terminal biotin on a linker: ttds)
T5 sequence (Q00013 66-162, limits assumed, looked up): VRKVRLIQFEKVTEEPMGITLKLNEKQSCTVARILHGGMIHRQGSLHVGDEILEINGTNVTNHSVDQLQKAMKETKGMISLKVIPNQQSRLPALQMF

[7] = target: T6, MAGI2_1, Q86UL8; conditions: plain residues with an end cap or a label only (N-terminal biotin on a linker: ttds)
T6 sequence (Q86UL8 12-111, limits assumed, looked up): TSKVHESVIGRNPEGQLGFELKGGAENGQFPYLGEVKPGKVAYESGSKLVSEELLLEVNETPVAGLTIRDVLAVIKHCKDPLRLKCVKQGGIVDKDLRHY

[8] = target: T7, SHROOM2, Q13796; conditions: plain residues with an end cap or a label only (N-terminal biotin on a linker: ttds)
T7 sequence (Q13796 21-118, limits assumed, looked up): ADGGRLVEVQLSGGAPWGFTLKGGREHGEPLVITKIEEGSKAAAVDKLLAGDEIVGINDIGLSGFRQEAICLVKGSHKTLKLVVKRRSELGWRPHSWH

[9] = target: PDZD9, Q8IXQ8; conditions: plain residues with an end cap or a label only (N-terminal biotin on a linker: ttds)
[10] = target: T8, SHROOM3, Q8TF72; conditions: plain residues with an end cap or a label only (N-terminal biotin on a linker: ttds)
T8 sequence (Q8TF72 20-120, limits assumed, looked up): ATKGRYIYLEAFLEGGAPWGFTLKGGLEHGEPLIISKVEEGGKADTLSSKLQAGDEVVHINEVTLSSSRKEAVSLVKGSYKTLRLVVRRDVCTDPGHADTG

[11] = target: SCRIB_4, Q14160; conditions: plain residues with an end cap or a label only (N-terminal biotin on a linker: ttds)
[12] = target: PARD3B_3, Q8TEW8; conditions: plain residues with an end cap or a label only (N-terminal biotin on a linker: ttds)
[13] = target: PDZRN4_2, Q6ZMN7; conditions: plain residues with an end cap or a label only (N-terminal biotin on a linker: ttds)
[14] = target: T9, PDZD7_1, Q9H5P4; conditions: plain residues with an end cap or a label only (N-terminal biotin on a linker: ttds)
T9 sequence (Q9H5P4 81-178, limits assumed, looked up): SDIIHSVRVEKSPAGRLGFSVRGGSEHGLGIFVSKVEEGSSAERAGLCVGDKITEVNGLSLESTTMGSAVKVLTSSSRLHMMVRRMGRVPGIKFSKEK

[15] = target: T10, PDZD8, Q8NEN9; conditions: plain residues with an end cap or a label only (N-terminal biotin on a linker: ttds)
T10 sequence (Q8NEN9 361-459, limits assumed, looked up): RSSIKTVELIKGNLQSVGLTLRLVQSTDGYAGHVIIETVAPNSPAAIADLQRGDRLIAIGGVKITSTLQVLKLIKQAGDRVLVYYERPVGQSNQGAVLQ

[16] = target: T11, GIPC1, O14908; conditions: plain residues with an end cap or a label only (N-terminal biotin on a linker: ttds)
T11 sequence (O14908 128-223, limits assumed, looked up): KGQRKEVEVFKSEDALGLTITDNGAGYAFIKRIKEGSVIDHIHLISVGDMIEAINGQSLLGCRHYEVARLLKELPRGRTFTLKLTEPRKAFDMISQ

[17] = target: RGS3, P49796-9; conditions: plain residues with an end cap or a label only (N-terminal biotin on a linker: ttds)
[18] = target: T12, PDZD2_3, O15018; conditions: plain residues with an end cap or a label only (N-terminal biotin on a linker: ttds)
T12 sequence (O15018 581-682, limits assumed, looked up): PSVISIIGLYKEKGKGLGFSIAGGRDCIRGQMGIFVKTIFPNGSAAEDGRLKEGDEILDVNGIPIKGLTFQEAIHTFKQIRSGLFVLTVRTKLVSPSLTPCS

[19] = target: T13, TJP3_1, O95049; conditions: plain residues with an end cap or a label only (N-terminal biotin on a linker: ttds)
T13 sequence (O95049 6-103, limits assumed, looked up): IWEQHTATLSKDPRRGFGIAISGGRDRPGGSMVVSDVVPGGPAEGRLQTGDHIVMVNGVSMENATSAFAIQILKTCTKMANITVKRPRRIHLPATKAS

[20] = target: DVL2, O14641; conditions: plain residues with an end cap or a label only (N-terminal biotin on a linker: ttds)
[21] = plain residues with an end cap or a label only (N-terminal biotin on a linker: ahx)
[22] = plain residues with an end cap or a label only (N-terminal biotin on a linker: ado-ado, ttds)
[23] = plain residues with an end cap or a label only (N-terminal biotin on a linker: ado-ado)
[24] = plain residues with an end cap or a label only (N-terminal biotin on a linker: ttds)

Inadl_10, Q8NI35, sequence (Q8NI35 1673-1763): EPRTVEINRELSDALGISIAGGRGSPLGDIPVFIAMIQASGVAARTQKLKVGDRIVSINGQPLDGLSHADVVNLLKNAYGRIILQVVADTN
PDZD9, Q8IXQ8, sequence (Q8IXQ8 23-120): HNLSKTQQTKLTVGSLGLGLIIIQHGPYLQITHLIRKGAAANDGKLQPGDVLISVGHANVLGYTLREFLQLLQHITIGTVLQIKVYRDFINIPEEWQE
DVL2, O14641, sequence (O14641 260-359): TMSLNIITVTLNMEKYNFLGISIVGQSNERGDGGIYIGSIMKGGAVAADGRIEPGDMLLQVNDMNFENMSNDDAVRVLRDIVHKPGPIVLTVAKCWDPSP
PARD3B_3, Q8TEW8, sequence (Q8TEW8 490-594): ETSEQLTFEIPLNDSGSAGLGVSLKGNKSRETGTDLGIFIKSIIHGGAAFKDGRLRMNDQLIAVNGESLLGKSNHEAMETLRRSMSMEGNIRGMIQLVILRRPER
RGS3, P49796-9, sequence (P49796 other isoform, or with tags, fused parts or gaps): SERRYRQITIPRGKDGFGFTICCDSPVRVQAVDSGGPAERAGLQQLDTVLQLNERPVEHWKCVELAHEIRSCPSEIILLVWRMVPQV
SCRIB_4, Q14160, sequence (Q14160 1095-1204): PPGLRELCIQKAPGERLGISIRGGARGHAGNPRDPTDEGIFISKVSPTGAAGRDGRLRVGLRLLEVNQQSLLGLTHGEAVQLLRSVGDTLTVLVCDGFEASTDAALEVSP
PDZRN4_2, Q6ZMN7, sequence (Q6ZMN7 389-498): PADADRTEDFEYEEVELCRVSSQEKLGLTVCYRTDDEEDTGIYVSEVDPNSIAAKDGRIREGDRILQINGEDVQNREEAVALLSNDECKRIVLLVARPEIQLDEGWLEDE

With SKKNELFSNL [NHERF1, O14745] the pKd [1, 21] was “below the threshold” and the pKd [2, 21] was “below the threshold”.

For SNAKAVETDV [KCNA4, P22459], the pKd [1, 22] was “below the threshold” and the pKd [2, 22] was “below the threshold”.

With ELKAEDEVQI [DCHS2, Q6V1P9] the pKd [1, 23] was “below the threshold” and the pKd [2, 23] was “below the threshold”.

With SAPATLSSRA [PDLIM2, Q96JY6] the pKd [1, 21] was “below the threshold” and the pKd [2, 21] was “below the threshold”.

In the case of SGGKRKETLV [NET1, Q7Z628], the pKd [3] is reported as “below the threshold”, the pKd [4] is reported as 3.79 and the pKd [5] is reported as 3.75. The pKd [6] was “below the threshold”, the pKd [7] was “below the threshold” and the pKd [8] was “below the threshold”. The pKd [1, 24] was “below the threshold”, the pKd [9] was “below the threshold” and the pKd [10] was “below the threshold”. The pKd [11] was “below the threshold”, the pKd [12] was “below the threshold” and the pKd [13] was “below the threshold”. For the same binder, the pKd [14] was “below the threshold”, the pKd [15] was “below the threshold” and the pKd [16] was 4.28. The pKd [2, 24] was “below the threshold”, the pKd [17] was “below the threshold” and the pKd [18] was “below the threshold”. For the same binder, the pKd [19] was “below the threshold” and the pKd [20] was “below the threshold”.

ADENEQVSAV [RAPGEF6, Q8TEU7] was tested, and the pKd [1, 21] was “below the threshold” and the pKd [2, 21] was “below the threshold”.

For FVETQHQTQV [FAT3, Q8TDW7], the pKd [1, 24] was 3.5 and the pKd [2, 24] was 3.65.

In the case of PKMKLNETSF [SHKBP1, Q8TBC3], the pKd [1, 21] is reported as “below the threshold” and the pKd [2, 21] is reported as “below the threshold”.

In the case of YNSFLSVTTV [PDZRN3, Q9UPQ7], the pKd [1, 21] is reported as 3.7 and the pKd [2, 21] is reported as “below the threshold”.

For PFRSRSPSEV [GPR6, P46095], the pKd [1, 24] was “below the threshold” and the pKd [2, 24] was 3.6.

In the case of KEYDDELTFF [USH1C, Q9Y6N9], the pKd [1, 21] is reported as “below the threshold” and the pKd [2, 21] is reported as 3.62.

For DAAHHDESNC [FMNL3, Q8IVF7], the pKd [1, 23] was “below the threshold” and the pKd [2, 23] was “below the threshold”.

For EKPIDSETKM [SLC1A3, P43003], the pKd [1, 23] was “below the threshold” and the pKd [2, 23] was “below the threshold”.

For VNENQKEYFF [CNTNAP4, Q9C0A0], the pKd [1, 21] was “below the threshold” and the pKd [2, 21] was 4.9.

SQDPKKPSRV [CBY2, Q8NA61] was tested, and the pKd [1, 23] was “below the threshold” and the pKd [2, 23] was “below the threshold”.

For HSATSVHTSV [MTMR1, Q13613], the pKd [1, 21] was 3.62 and the pKd [2, 21] was “below the threshold”.

DLDEEEDTHL [PODXL, O00592] was tested, and the pKd [1, 24] was “below the threshold” and the pKd [2, 24] was “below the threshold”.

With IGHEDLETAV [DGKI, O75912] the pKd [1, 23] was “below the threshold” and the pKd [2, 23] was “below the threshold”.

For GARVSKETPL [MAPK12, P53778], the pKd [1, 24] was “below the threshold” and the pKd [2, 24] was “below the threshold”.

With KQVVPFSSSV [GDA, Q9Y2T3] the pKd [1, 24] was “below the threshold” and the pKd [2, 24] was “below the threshold”.

KDECVIATEV [DLL1, O00548] was tested, and the pKd [1, 21] was “below the threshold” and the pKd [2, 21] was “below the threshold”.

For PDSYHRRDFW [U2AF2, P26368], the pKd [1, 23] was “below the threshold” and the pKd [2, 23] was “below the threshold”.

In the case of AKPQPVDSWV [ARVCF, O00192], the pKd [1, 21] is reported as “below the threshold” and the pKd [2, 21] is reported as 3.96.

In the case of NPDALPETLV [ARHGAP6, O43182], the pKd [1, 24] is reported as “below the threshold” and the pKd [2, 24] is reported as “below the threshold”.

QRPYRRESEI [KCNJ12, Q14500] was tested, and the pKd [1, 24] was “below the threshold” and the pKd [2, 24] was “below the threshold”.

For GRLLGLETNV [ARHGEF26, Q96DR7], the pKd [1, 24] was “below the threshold” and the pKd [2, 24] was “below the threshold”.
